One substance from patent US20250381244A1 can be followed below.

The test deals with Neuropilin-2 (human NRP-2), endogenous on U87MG, Jurkat and HUVEC cells (human) (UniProt O60462). Nature of the test: cell-based or functional assay.
Sequence of Neuropilin-2 (human NRP-2), endogenous on U87MG, Jurkat and HUVEC cells (human) (O60462 21-931 limits assumed): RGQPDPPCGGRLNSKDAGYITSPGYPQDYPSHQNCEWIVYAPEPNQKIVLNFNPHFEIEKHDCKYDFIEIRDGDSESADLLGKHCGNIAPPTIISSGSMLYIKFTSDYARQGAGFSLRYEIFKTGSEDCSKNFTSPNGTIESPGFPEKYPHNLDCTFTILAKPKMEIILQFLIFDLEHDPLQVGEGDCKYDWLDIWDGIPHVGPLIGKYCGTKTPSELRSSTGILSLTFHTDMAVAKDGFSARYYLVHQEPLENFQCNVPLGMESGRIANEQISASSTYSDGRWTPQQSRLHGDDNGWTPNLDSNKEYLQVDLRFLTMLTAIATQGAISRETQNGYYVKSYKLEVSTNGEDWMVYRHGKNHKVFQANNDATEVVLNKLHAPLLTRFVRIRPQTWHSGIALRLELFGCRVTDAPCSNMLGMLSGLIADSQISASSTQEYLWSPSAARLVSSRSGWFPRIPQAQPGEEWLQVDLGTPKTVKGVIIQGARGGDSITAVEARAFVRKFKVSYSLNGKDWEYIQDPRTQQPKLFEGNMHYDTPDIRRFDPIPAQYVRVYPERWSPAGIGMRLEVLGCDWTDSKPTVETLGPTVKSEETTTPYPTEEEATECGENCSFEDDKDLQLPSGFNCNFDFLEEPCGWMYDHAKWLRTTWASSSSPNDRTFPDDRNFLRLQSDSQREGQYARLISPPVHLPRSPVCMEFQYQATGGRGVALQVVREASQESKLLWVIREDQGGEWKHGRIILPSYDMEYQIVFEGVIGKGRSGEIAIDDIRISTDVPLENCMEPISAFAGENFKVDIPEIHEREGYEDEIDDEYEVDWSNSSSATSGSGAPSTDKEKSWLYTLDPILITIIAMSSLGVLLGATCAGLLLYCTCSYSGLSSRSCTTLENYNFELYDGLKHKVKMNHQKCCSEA

The substance “Human recombinant SEMA3F (full-length, His-Myc-tagged human SEMA3F, secreted by 293T cells and purified) (from UniProt Q13275 20-785) (ligand)” gave an inhibition of DFO-induced VEGF promoter luciferase activity, U87MG cells of 43%; an inhibition of stress fiber formation (phalloidin staining), pcDNA3.1 control vector transfected U87MG cells of 90%; a reduction of hypoxia (1% O2)-induced VEGF promoter luciferase activity, U87MG cells of 44%; a suppression of RhoA activity (rhotekin pulldown), control pcDNA3.1-transfected U87MG cells of 88%.
